# Starred links: 1 amine or outer side, 2 acyl side, 3 side chain; linkers in the order of their positions; H or OH if unused. Non-standard residues stand in square brackets, D forms with d. No end group written: not given here. Tyr(125I) = 125I-labelled Tyr, O=C([C@H](Cc1ccc(O[*:3])c([125I])c1)N[*:1])[*:2]
# T1: κ1-78/δ70-372 chimeric opioid receptor (mouse)
# T1 construct: Expressed in COS-7 cells, membranes assayed
# T1 chain: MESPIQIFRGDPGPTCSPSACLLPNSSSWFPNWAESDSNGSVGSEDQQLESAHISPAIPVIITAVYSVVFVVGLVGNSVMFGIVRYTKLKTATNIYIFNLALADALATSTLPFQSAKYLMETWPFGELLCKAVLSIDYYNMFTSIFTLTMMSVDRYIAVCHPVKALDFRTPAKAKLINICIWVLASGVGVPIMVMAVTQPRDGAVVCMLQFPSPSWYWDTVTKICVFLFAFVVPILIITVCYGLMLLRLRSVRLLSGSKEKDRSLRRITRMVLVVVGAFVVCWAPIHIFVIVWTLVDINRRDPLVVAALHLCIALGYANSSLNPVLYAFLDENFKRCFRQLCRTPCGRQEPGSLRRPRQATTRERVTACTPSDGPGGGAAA
# Legend:
# [1] = molecular target: T2, mouse kappa opioid receptor (mORK1) (mouse, UniProt P33534 1-380); experiment: radioligand binding, COS-1 membranes
# T2 construct: Assayed in membranes of transfected COS-1, PC12 or COS-7 cells; also called msl-1; κ receptor
# [2] = molecular target: T3, mouse delta opioid receptor (mORD1) (mouse, UniProt P32300 1-372); experiment: radioligand binding, COS-1 membranes
# T3 construct: Assayed in membranes of transfected COS-1, CHO-DG44 or COS-7 cells; also called msl-2; δ receptor
# rat µ opioid receptor = molecular target: T4, rat µ opioid receptor (rat, UniProt P33535 1-398); experiment: competition vs [3H]DAMGO, COS-7 membranes
# T4 construct: whole, on cells; Assayed in membranes of transfected COS-7 cells; also called cloned µ receptor; rat µ receptor
# Method: (§1) Receptor binding assays were performed using membranes from either PC12 cells stably expressing the cloned mouse K receptor, CHO-DG44 cells stably expressing the mouse 8 receptor, or COS-7 cells transiently expressing the rat μ receptor 48-72 hours after transfection as previously described (4,10). For radioligand binding assays, cells were harvested in 50 mM Tris-HCl (pH 7.8) containing 1 mM ethylene glycol bis(β-aminoethyl ether)-N,N′-tetraacctic acid, 5 mM MgCl₂, 10 μg/ml leupeptin, 10 μg/ml pepstatin 200 μg/ml bacitracin and 0.5 μg/ml aprotinin (buffer 1) and centrifuged at 24,000 K g for 7 min at 4° C. The pellet was homogenized in buffer 1 using a Polytron (Brinkmann, setting 2.5 30 sec). The Homogenate was then centrifuged at 48,000 κ g for 20 min at 4° C. The pellet was homogenized in buffer 1 and this membrane preparation was used for the radioligand binding studies. […] The binding reaction was terminated by the addition of ice-cold 50 mM Tris-HCl buffer (pH 7.8) and rapid filtration over Whatman GF/B glass fiber filters which were pretreated with 0.5% polyethyleneimine/0.1% BSA for at least 1 hour. The filters were then washed with 12 mL of ice-cold Tris-HCl buffer and the bound radioactivity counted in a scintillation counter. Data from radioligand binding studies were used to generate inhibition curves.
# [3] = molecular target: T3, mouse delta opioid receptor (mORD1); experiment: competition vs [3H]naltrindole, CHO-DG44 membranes
# Method: as §1
# [4] = molecular target: T1, κ1-78/δ70-372 chimeric opioid receptor; experiment: competition vs [3H]naloxone, COS-7 membranes
# Method: The homogenate is centrifuged at 48,000×g for 20 min at 4° C. and the pellet resuspended in Buffer 1 and used in the radioligand binding assay. […] All radioligands were obtained from NEN/Dupont (Boston, Mass.). […] The binding reaction is terminated by the addition of ice-cold 50 mM Tris-HCL (pH 7.8) and rapid filtration over Whatman GF/B glass fiber filters that were pretreated with 0.5% polyethleneimine and 0.1% bovine serum albumin. The filters were washed with 12 ml of ice-cold buffer and soaked overnight in scintillation fluid. The bound radioactivity was determined using a scintillation counter.
# [5] = molecular target: T2, mouse kappa opioid receptor (mORK1); experiment: competition vs [3H]U-69,593, PC12 membranes
# Method: as §1
# [6] = molecular target: cloned human µ opioid receptor (human, UniProt P35372 1-400); experiment: competition vs [3H]DAMGO, COS-7 membranes
# Sequence of cloned human µ opioid receptor (P35372 whole entry): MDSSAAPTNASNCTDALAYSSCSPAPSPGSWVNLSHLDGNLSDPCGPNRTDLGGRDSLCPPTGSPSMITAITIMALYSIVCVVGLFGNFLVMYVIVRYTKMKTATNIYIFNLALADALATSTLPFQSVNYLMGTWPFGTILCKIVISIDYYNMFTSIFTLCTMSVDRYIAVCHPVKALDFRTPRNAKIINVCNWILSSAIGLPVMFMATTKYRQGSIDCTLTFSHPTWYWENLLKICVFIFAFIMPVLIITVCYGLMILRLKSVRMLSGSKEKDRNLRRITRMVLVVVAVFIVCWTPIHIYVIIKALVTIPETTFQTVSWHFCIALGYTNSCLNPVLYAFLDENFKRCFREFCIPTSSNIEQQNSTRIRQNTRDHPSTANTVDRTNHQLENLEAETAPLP
# Method: For radioligand binding assays, cells were harvested in 50 mM Tris-HCl (pH 7.8) containing 1 mM ethylene glycol bis(b-aminoethyl ether)-N,N′-tetraacetic acid, 5 mM MgCl₂, 10 mg/ml leupeptin, 10 mg/ml pepstatin, 200 mg/ml bacitracin and 0.5 mg/ml aprotinin (buffer 1) and centrifuged at 24,000×g for 7 min at 4° C. The pellet was homogenized in buffer 1 using a Polytron (Brinkmann, setting 2.5, 30 sec). The homogenate was then centrifuged at 48,000×g for 20 min at 4° C. The pellet was homogenized in buffer 1 and this membrane preparation was used for the radioligand binding studies. […] The binding reaction was terminated by the addition of ice-cold 50 mM Tris-HCl buffer (pH 7.8) and rapid filtration over Whatman GF/B glass fiber filters which were pretreated with 0.5% polyethyleneimine/0.1% BSA for at least 1 hour. The filters were then washed with 12 mL of ice-cold Tris-HCl buffer and the bound radioactivity counted in a scintillation counter. Data from radioligand binding 10 studies were used to generate inhibition curves.
# T4 sequence (P33535 whole entry): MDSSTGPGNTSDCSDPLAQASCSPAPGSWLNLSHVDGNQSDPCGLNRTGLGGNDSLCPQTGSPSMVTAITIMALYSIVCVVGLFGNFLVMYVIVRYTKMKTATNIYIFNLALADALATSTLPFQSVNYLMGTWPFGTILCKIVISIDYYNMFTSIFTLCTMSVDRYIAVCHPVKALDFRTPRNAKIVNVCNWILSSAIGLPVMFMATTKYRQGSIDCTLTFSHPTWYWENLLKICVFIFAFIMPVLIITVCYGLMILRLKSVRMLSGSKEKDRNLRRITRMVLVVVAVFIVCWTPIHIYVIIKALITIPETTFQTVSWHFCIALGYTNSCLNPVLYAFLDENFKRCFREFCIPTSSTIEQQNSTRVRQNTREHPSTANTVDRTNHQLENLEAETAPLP
Binder,Ki (rat µ opioid receptor) [nM],Ki [3] [nM],Ki [5] [nM],Ki [6] [nM],further results
"AGCKNFFWKT[Tyr(125I)]TSC (peptide, UniProt P61278 103-116, looked up, ends and bridges not checked) [[125I-Tyr11] SRIF]",,,,,binding result [1]: no binding; binding result [2]: no binding
"YGGFMTSEKSQTPLVTLFKNAIIKNAYKKGE (peptide, UniProt P01189 237-267, looked up, also: 125I-labelled where used as radioligand, site not given here, domain: β-Endorphin; also called beta-endorphin) [β-Endorphin (human)]",1,1,,,
"YGGFLRRIRPKLKWDNQ (peptide, UniProt P01213 207-223, looked up) [dynorphin (form not specified)]",,,,,IC50 [4]: 40 nM
"YGGFM (peptide, UniProt P01210 100-104, looked up, domain: Met-enkephalin) [Met-enkephalin]",,,> 1000,,
"FCYWXTXT (D-Phe at 1, D-Trp at 4, Orn at 5 (printed Om), Pen at 7, C-terminal NH2; X in the letters stands for Orn 5 and Pen 7) [CTOP (D-Phe-Cys-Tyr-D-Trp-Orn-Thr-Pen-Thr-NH2)]",,,,3.9,
"GGFMTSEKSQTPLVTLFKNAIIKNAYKKGE (peptide, UniProt P01189 238-267, looked up, domain: des-Tyr1-β-endorphin; also called des-Tyrl-β-endorphin) [des-Tyr1-β-endorphin]",> 1000,> 1000,> 1000,> 1000,

# — US20030211537A1 (ARCH DEVELOPMENT, published 2003)
